For experiment [1], the target named is T1, truncated OGT N567K (O-GlcNAc transferase, residues 323-1044, N567K variant) (human, UniProt O15294 323-1044, N567K).
T1 construct: O-GlcNAc transferase (OGT), human, residues 323-1044, with the patient missense mutation N567K in the catalytic domain; In the crystal it also holds the donor analog UDP-5S-GlcNAc; N567K is a de novo mutation found in patients; also called N567K OGT; O-linked β-N-acetyl-D-glucosamine (O-GlcNAc) transferase N567K; source: recombinant, from Escherichia coli (expression and purification in SI …)
T1 sequence (looked up): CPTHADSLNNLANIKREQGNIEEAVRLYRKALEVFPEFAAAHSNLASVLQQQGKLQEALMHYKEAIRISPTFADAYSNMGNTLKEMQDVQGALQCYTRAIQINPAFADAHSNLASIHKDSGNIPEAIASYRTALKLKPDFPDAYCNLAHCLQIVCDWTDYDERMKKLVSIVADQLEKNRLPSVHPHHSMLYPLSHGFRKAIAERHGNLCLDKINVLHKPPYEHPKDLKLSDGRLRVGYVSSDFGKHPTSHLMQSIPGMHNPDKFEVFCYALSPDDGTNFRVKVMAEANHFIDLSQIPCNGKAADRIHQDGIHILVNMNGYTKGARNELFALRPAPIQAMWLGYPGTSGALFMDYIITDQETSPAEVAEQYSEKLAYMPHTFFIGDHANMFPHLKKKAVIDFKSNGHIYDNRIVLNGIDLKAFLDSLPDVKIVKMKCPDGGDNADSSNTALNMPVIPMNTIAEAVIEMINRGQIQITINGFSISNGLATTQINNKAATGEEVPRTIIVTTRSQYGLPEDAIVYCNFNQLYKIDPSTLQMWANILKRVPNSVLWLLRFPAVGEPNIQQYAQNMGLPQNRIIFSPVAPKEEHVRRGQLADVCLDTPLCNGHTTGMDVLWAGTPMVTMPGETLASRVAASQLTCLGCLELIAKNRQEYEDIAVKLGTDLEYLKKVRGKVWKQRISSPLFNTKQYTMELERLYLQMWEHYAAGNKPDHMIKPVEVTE
In words: crystal structure; OGT N567K (323-1044) cocrystallized with the donor analog UDP-5S-GlcNAc and acceptor peptide P2; ternary complex; molecular replacement with PDB 5C1D. Conditions: both partners purified.

Experiment [2] deals with T2, truncated OGT N567K (O-GlcNAc transferase, residues 323-1044, N567K variant) (human) (UniProt O15294).
T2 sequence: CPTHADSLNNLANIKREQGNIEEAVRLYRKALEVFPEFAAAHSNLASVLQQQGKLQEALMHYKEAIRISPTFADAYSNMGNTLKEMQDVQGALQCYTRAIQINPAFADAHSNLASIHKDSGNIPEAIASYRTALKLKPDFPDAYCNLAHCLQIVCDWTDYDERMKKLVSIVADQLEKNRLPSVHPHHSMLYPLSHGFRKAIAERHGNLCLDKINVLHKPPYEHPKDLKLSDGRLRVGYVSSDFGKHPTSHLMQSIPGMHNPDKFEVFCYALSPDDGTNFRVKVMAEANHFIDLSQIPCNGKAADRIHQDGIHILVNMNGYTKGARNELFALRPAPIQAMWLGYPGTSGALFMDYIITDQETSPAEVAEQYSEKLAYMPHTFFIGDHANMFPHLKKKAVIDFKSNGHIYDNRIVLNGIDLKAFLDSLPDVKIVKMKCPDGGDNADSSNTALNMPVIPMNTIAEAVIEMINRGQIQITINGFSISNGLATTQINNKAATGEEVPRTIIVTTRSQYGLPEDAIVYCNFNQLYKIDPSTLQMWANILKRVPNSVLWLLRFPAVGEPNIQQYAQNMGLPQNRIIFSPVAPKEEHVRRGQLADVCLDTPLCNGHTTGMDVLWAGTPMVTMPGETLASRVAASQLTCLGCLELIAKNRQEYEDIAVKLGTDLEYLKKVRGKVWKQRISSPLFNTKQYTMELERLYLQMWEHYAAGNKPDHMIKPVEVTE

B1: P2 acceptor peptide (KKVAVSRA) (peptide)
peptide: KKVAVSRA
notes: OGT acceptor peptide substrate with alanine at the -2 subsite
Turning to B1, in experiment [1], the binding result is reported as “binds”.

B2: P1 acceptor peptide (KKVPVSRA) (peptide)
peptide: KKVPVSRA
B2 displayed an OGT glycosyltransferase activity, steady-state (Michaelis-Menten) kinetics, fluorometric assay, OGT N567K against acceptor peptide P1, compared with OGT WT in experiment [2] of 12 fold.
